From the nanobody polyreactivity screen of Harvey et al. (2022) come the findings set out here.

This data set can be described thus: yeast display, Sf9 membrane polyspecificity reagent, FACS + sequencing; frameworks hold sequencing errors. The essentials: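 Genes from sorted yeast were amplified by colony PCR, read by MiSeq 2 × 250 sequencing and filtered on CDR length. These cells carried a synthetic nanobody library in Saccharomyces cerevisiae BJ5465 and were sorted by FACS into low and high (top ~1%) gates on anti-HA and streptavidin fluorescence. Polyreactivity is labelled according to the gate of origin.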
“QVQLVESGGGLVQAGGSLRLSCAASGRIFRYYDMAWYTQAPGKEREFVAAITRSGAITYYADSVKGRFTKSRDNAKNTVYLQMNSLKPEDTAVYYCAARYWAKFGYWGQGTQVTVSS”: the “polyreactivity (PSR sort gate)” value is “low polyreactivity”.

As to “QVQLVESGGGLVQAGGSLRLSCAASGSIIVRYAMGWYRQAPGKERELVASISKRGGSTYYADSVKGRFTISRDNAKNTVYLQMNSLKPEDTAVYYCAARVVTRVRGVGYNYWGQGTQVTVSS”, the “polyreactivity (PSR sort gate)” value is listed as “high polyreactivity”.

Take “QVHLVESGGGLVQAGGSLRLTCAASGFIFQWYAMGWYRQAPGKERELVAAINSSGSTNYADSVKGRFTISRDNAKNSGYLQRNILKPEDTAVYYCAAHWRYGRKFDYWGQGTQVTVSS”: the “polyreactivity (PSR sort gate)” value is “high polyreactivity”. Next, “QVQLVESGGGLVQAGGSLRLSCAASGLTFSSYTMGWYRQAHGKERELVAAINWNGGDTYYADSVKGRFTISRDNAKNTVYLQMHSLKPEDTAVYYCNADYPYFYRFTAEYDYCGQGTQVTVSS”: “low polyreactivity”; “QVQLVESGGGLVQAGGSLRLSCAASGRIFSRNAMGWYRQAPGKERELVAAISGSGGSTYYADSVKGRFTISRDNAKNTVYLQMNSLKPEDTAVYYCNKFGYHREYDYWGQGTQVTVSS”: “low polyreactivity”. Under “QVQLVESGGGLVQAGGSLRLSCAASGSIFAVYAMGWYRQAPGKERELVAASSTDYADSVKGRFTISRDNAKNTVYLQMNSLKPEDTAVYYCAKVGFGIPGGFYFWGQGTQVTVSS” stands “low polyreactivity”; under “QVQLVESGGGLVQAGGSLRLSCAASGFIFGSYAMGWYRQAPGKERELVAAINWSGGSTYYADSVKGRFTISRDNAKNTVYLQMNSLKPDDTAVYYCAADRTYYSFLYYPWVDFDYWGQGTQVTVSS”, “high polyreactivity”; under “QVQLVESGGGLDQAGGSRRLSCAASGSTFSSYAMGWYSQAPGQARELVAVITASGGSTYYADSVKGRFTISRDNPKNTVYLQMNSLKPDDTAVYYCAADPRSGDQYGKGDYWGQGTQVTGSS”, “low polyreactivity”. Take “QVQLVESGGGLVQAGGSLRLSCAASGRTFLPNDMGWYRQAPGKERELVAAITDSGGDTYYADSVKGRFTISRDNAKNTVYLQMNSLKPEDTAVYYCAADYYYYGSYYPVEYWGQGTQVTVSS”: the “polyreactivity (PSR sort gate)” value is “high polyreactivity”. Next, “QVQLVESGGGLVQAGGSLRLSCADSGSSFPSYAMLWYRQAPGKERELVAAISSSGGRTYYADYVKGRFTISRDNAKNTVYLQMNSLIPVDTAVYYCAADRRKWPTGGYWGEGTQVTVSS”: “high polyreactivity”; “QVQLVESGGGLVQAGGSLRLSCAASGLTLDQYPMGWYRPAPGKEREFVAAISYSGGNTYYADSVKGRFTISRYNAKNTVYLQMNSLKPEETAVYYCAAYYYYFYHKVIWYELDYWGHGTQVTVSS”: “low polyreactivity”; “QVQLVESGGGLVQAGGSLRLSCAASGRTFESNAMGWYRQAPGKERELVAGITSGGITNYADSVKGRFTISRDNAKNTVYLQMNSLKPEDTAVYYCEFYYWGQGTQVTVSS”: “low polyreactivity”. With “QVQLVESGGGLVQAGGSLRLSCAASGSTLRYYAMGWYRQAPGKERELVAAITYSAGRTSYADSVKGRFTISRDNAKNTVYLQMNSLKPEDTAVYYCATQWHSYLRRYDYWGQGTQVTVSS”, the “polyreactivity (PSR sort gate)” value is “low polyreactivity”. “QVQLVESGGGLVQAGGSLRLSCPASGLTFAYYTMGWYRQSPGKERELVADISRSGGSTYYADSVKGRFTISRDNAKNTVYLQMNSLKPEDSAVYYCAARANVYTKKRDYWGQGTQVTVSW”: the “polyreactivity (PSR sort gate)” value is given as “high polyreactivity”. Next, “QVQLVESGGGLVQAGGSLRLSCAASGRIFDSYAMGWYRQAPGKERELVAAISFGGDTYYADSVKGRFTISRDNAKNTVYLQMNSLKPEDTAVYYCAKDNPAALFDSWGQGTQVTVSS”: “low polyreactivity”; “QVQLVESGGGLVQAGGSLRLSCAASGRIFGKYVMGWYRQAPGKERELVAAISSGGSTYADSVKGRFTISRDNAKNTFYLQMNCLKPEDTAVYYCNTRPRLYGYRPSQYTYDYWGQGTQVTVSS”: “high polyreactivity”. For “QFQLVESGGGLVQAGGSLRLSCAASGGTFGNNDMGWYRQAPGKERELVAAIRSAGTTYYADSVKGRFTISRDNAKNTVYLQMNSLKPEDTAVYYCNADTTGYWSYGFQYYGEDYWGQGTQVTVSS”, the “polyreactivity (PSR sort gate)” value is “low polyreactivity”. For “QVQLVESGGGLVQAGGSLRLSCAASGFIFTANAMGWYRQAPGKESELVANINRSGDSTYYADSVKGRFTISRDNAKNTVYLQMNSLKPEDTAVYYCNKDWHSQVFSAYNSYDYWGQGTQVTVSS”, the “polyreactivity (PSR sort gate)” value is “low polyreactivity”. Under “QVQLVESGGGLVQAGGSLRLSCAASGSIFPYYAMGWYRQAPGKERELVAAINWIGGSTYYADSVKGRFTISRDNAKNTVYLQMNSLKPEDTAVYYCAVDYYSYYYEYDYWGQGTQVTVSS” stands “high polyreactivity”; under “QVQLVESGGGLVQAGGSLRLSCAASGFAFSYYAMGWYRQAPGKEREFVASIDWSGGSTYYADSVKGRFTISRDNAKNTVYLQMNSLKAEDTAVYYCAAELDYFPGYDYWGQGTQVTVSS”, “low polyreactivity”; under “QVQLVESGGGLVQAGGSLRLSCGASGRIFTRYAMGWYRQAPGKERELVAAISYGGGGTYYADSVKGRFTISRDNAKNTVYLQINSLKPEDTAVYYCATDDPLSQINEQCMDYWGQGTQVTVSS”, “low polyreactivity”. With “QVQLVESGGGLVQAGGSLRLSCAASGSIFFEYAMGWSRQAPGKERELVASINRGGGSTYYSDSVKGRFTISRDNAKNTVYLQMNSLKPEDTAVSYCAAQWKYRQSYLDYYSGQGTQVTVSS”, the “polyreactivity (PSR sort gate)” value is “low polyreactivity”. Next, “QVQLVESGGGLVQAGGSLRLSCAASGSTFRHNAMGWYRQAPGKERELVATIRTSGGTTYYADSVKGRFTISRDNAKNTVYLQMNSLKQEDTAVYYCAAVSYLFLYQGYPIAYPMYYWGQGSQVTVSS”: “low polyreactivity”; “QVQLVESGGGLVQAGGSLRLSCAASGITFNIYVMGWYRQAPGKERELVAAITDSGGTTYYADSVKGRFTISRDNAKNTVYLQMNSLKPEDTAVYYCAAEPFYSWWWWGDYWGQGTQVTVSS”: “high polyreactivity”. Take “QVQLVESGGGLVQAGGSLRLSCAASGNIFAWYAMGWYRQAPGKERELDADISSRGGSTYYADSVKGRFTISRDNAKNTVYLQMNSLKPEDTAVYYCAAVWYWTQDYDYWGQGTQVTVSS”: the “polyreactivity (PSR sort gate)” value was “low polyreactivity”.

As for “QVQLVESGGGLVQAGGSLRLSCAASGSTFAWNAMGWYIQAPGKERELVAAISYSGGTTYYADSVKGRFTISRDNAKNTVYLQMNSLKPEDTAVYYCAKWEGHGRNPWGAGTEGDYWGQGTQVTVSS”, the “polyreactivity (PSR sort gate)” value is reported as “low polyreactivity”. On to “QVQLVESGGGLVQAGGSLRLSCAASGGTFVVYAMGWYRQAPGKEREFVAGISWGGGRTYYADSVKGRFTISRDNAKNPVYLQMNSLKPEDTAVYYCAVRREIQYYRKFDYWGQGTQVTVSS”, for which the “polyreactivity (PSR sort gate)” value is “low polyreactivity”. Next, “QEQLVESGGGLVQAGGSLRLSCAASGFTFWYYAMGWYRQAPGKEREFVAAISLGGGRTYYADSVKGRFTHSRDNAKNTVYLQMNSLKPEDTAVYYCAVDSGTYRSYRYDYCGQGTQVTVSS”: “high polyreactivity”; “QVQLVESGGGLVQAGGSLRLSCAPSGSTFNYNAMVWYRQAPGKERELVARISWRGGSTYYADSVKGRFTISRDNAKNTVYLQMNSLKPEATAVYYCAATRYWYGSTYDYWGQGTQVTVSS”: “high polyreactivity”; “QVQLVESGGGLVQAGGSLRLSCAASGITFVFYTMGWYRQAPGKERELVAAITSSGVRTSYADSVKGRFTISRDNAKNTVYLQMNSLKPEDTAVYYCAAKPTYVHKPGYNYWGQGTQVTVSS”: “high polyreactivity”. Under “QVQLVESGGGLVQAGGSLRLSCAASGITFTGNAMGWYRQAPGKERELVAAISNRGGSTYYADSVKGRFTISRDNAKNTVYLQMNSLKPEDTAVYYCRTSTPRRVSGNSWGQGTQVTVSS” stands “high polyreactivity”; under “QVQLVESGGGLVQAGGSLRLSCAASGRTFSRNAMGWYRQAPGKERELVATISSSGVRTYYADSVKGRFTISRDNAKNTVYLQMNSLKPEDTAVYYCAAAWRYYSAASGYDYWGQGTQVTVSS”, “low polyreactivity”. Next, “QVQLVESGGGLVQAGCSLRLSCAASGFTFIQYAMGWYRPAPGKERELVAAITRSGGRTYYADSVKGRFTISRDNAKNTVYLQMNSLKPEDTAVYYCNAVSRIYPGDEFGYWGQGTQVTVSS”: “high polyreactivity”; “QVQLVESGGGLVQAGASLRLSCAASGSTFVIYTMGWYRQAPGKERDLVAAISWSGGITRYADSVKGRFTISRDNGKNTVYLQMNSLKPEDTAVYYCNASQWPSRFDYWGQGPQVTVSS”: “low polyreactivity”. Turning to “QVQLVESGGGLVQAGGSLRLSCAASGSIFIAYGMGWYRQEPGKERELVAAITVSGGNTYYADSVKGRFTISRDNAKNTVYLQMNSLKPEDTAVYYCAADYWYYYGKVLYDYWGQGTQVTVSS”, the “polyreactivity (PSR sort gate)” value is “low polyreactivity”. Next, “QVQLVESGGGLVQAGGSLRLSCAASGRTFVDYAMGWYRQAPGKERELVAAISSSGASTYYADSVKGRFTISRDNAKNTVYLQMNSLKPEDTAVYYCAARRHRTYGYWGQGTQVTVSS”: “high polyreactivity”; “QVQLGESGGGLVQAGGSLRLSCAASGRTSTGYAMGWYRQAPGKERELVAGIDKIGGRTYYADSVKGRFTISRDNAKNTVYLQMNSLKPEDTAVYYCAKTRYFSVGTHWDYYYWGQGTQVTVSS”: “high polyreactivity”. Turning to “QVQLVESGGGLVQAGGSLRLSCAASGGTFPRYAMGWYRQAPGKERELVAAINQSGGRTYYADSVKGRFTISRDNAKNTVYLQMNSLKPEDTADYYCAAGYGWRTSYLSYGYWGQGTQVTVSS”, the “polyreactivity (PSR sort gate)” value is reported as “high polyreactivity”. Next, “QVQLVESGGVLVQAGGSLRLSCAASGRTLRSYAMGWYRHAPGKERELVAAISRSGGSTYYADSVKGRFTISRDNAKNTVYLQMNSLKPEDTAVYYCATRYLGRLDYWGQGTQVTVSS”: “high polyreactivity”; “QVQLVESGGGLVQAGGSLRLSCAASGSTFRYYAMGWYRQAPGKERELVAAITSSGGRTYYADSVKGRFTISRDNAKNTVYLQMNSLKPEDTAVYYCAAYAYYHTGDDYWGQGTQVTVSS”: “high polyreactivity”; “QVQLVESGGGLVQAGGSLRLSCAASGFTFDKNAMGWYRQAPGKERELVAAINIGSTYYADSVKGRFTISRDNAKNTVYLQMNSLKPEDTAVYYCAKEVPSGYWVNYYYWGQGTQVTVSS”: “low polyreactivity”.
